Data reported in PMC6359974.

Target: polymerized MTs of COV362 lysate (taxol-treated) (human (endogenous in COV362)) (UniProt P68363)
Assay: co-sedimentation

Sequence of UniProt P68363 (P68363 whole entry, chain 1 of 2): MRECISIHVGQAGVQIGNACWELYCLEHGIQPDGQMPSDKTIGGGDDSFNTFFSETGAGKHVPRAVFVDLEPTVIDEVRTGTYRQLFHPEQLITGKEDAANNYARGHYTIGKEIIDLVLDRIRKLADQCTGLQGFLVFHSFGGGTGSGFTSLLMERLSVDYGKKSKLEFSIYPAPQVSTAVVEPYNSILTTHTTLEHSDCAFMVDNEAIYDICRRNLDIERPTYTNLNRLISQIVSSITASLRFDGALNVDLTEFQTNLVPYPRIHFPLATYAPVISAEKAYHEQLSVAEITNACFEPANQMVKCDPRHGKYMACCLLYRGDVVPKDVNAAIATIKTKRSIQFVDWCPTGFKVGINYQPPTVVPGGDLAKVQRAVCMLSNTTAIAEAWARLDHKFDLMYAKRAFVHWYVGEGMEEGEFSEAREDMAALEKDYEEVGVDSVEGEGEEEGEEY
Sequence of UniProt P68363 (P07437 whole entry, chain 2 of 2, further chain): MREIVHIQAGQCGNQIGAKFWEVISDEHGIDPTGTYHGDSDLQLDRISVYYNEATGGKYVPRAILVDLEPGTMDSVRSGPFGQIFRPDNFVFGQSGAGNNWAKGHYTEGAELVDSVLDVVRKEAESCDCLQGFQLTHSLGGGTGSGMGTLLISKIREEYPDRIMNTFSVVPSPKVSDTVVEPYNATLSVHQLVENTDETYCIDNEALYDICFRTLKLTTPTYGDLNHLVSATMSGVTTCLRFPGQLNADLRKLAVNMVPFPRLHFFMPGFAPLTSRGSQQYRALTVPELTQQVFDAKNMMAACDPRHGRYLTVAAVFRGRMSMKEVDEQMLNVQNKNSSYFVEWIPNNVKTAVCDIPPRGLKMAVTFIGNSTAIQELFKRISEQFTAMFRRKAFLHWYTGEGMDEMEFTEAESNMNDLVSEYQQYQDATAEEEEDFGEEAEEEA

B1: UNC-45A (endogenous, COV362 cells) (natural protein)
chain: MTVSGPGTPEPRPATPGASSVEQLRKEGNELFKCGDYGGALAAYTQALGLDATPQDQAVLHRNRAACHLKLEDYDKAETEASKAIEKDGGDVKALYRRSQALEKLGRLDQAVLDLQRCVSLEPKNKVFQEALRNIGGQIQEKVRYMSSTDAKVEQMFQILLDPEEKGTEKKQKASQNLVVLAREDAGAEKIFRSNGVQLLQRLLDMGETDLMLAALRTLVGICSEHQSRTVATLSILGTRRVVSILGVESQAVSLAACHLLQVMFDALKEGVKKGFRGKEGAIIVDPARELKVLISNLLDLLTEVGVSGQGRDNALTLLIKAVPRKSLKDPNNSLTLWVIDQGLKKILEVGGSLQDPPGELAVTANSRMSASILLSKLFDDLKCDAERENFHRLCENYIKSWFEGQGLAGKLRAIQTVSCLLQGPCDAGNRALELSGVMESVIALCASEQEEEQLVAVEALIHAAGKAKRASFITANGVSLLKDLYKCSEKDSIRIRALVGLCKLGSAGGTDFSMKQFAEGSTLKLAKQCRKWLCNDQIDAGTRRWAVEGLAYLTFDADVKEEFVEDAAALKALFQLSRLEERSVLFAVASALVNCTNSYDYEEPDPKMVELAKYAKQHVPEQHPKDKPSFVRARVKKLLAAGVVSAMVCMVKTESPVLTSSCRELLSRVFLALVEEVEDRGTVVAQGGGRALIPLALEGTDVGQTKAAQALAKLTITSNPEMTFPGERIYEVVRPLVSLLHLNCSGLQNFEALMALTNLAGISERLRQKILKEKAVPMIEGYMFEEHEMIRRAATECMCNLAMSKEVQDLFEAQGNDRLKLLVLYSGEDDELLQRAAAGGLAMLTSMRPTLCSRIPQVTTHWLEILQALLLSSNQELQHRGAVVVLNMVEASREIASTLMESEMMEILSVLAKGDHSPVTRAAAACLDKAVEYGLIQPNQDGE
percent of UNC-45A bound to MTs: 100%
